The record followed here is patent US8871276B2, “Beta-casein assemblies for mucosal delivery of therapeutic bioactive agents” (Technion Research and Development Foundation Ltd., priority 2008, dated 2014).

Where “and” joins values, the source holds several entries; their conditions need not be identical. Equal entries are not always repeated.

Assay type in all cases: physicochemical
Data set [1] can be described thus: Light microscopy (Nomarski DIC) / visual solubility observation. To be noted: hepes buffer, neutral pH, with or without β-casein. On the procedure: An Olympus BX51 light microscope was operated at Nomarski differential interference contrast (DIC) optics. A 5 μL drop was placed on a glass slide, covered with a cover slide. Images were recorded digitally with an Olympus DP71 digital camera connected to the light microscope. Image processing was performed using Cell A (Olympus).
Bovine β-casein (>90%; Sigma-Aldrich) was dissolved in pH 7.0 hepes buffer containing 200 mM hepes (MP Biomedicals), 10 mM MgCl2 (Sigma-Aldrich), 20 mM EGTA (Sigma-Aldrich) and 10 mM NaCl (Loba Chemie), and was placed over-night at 4° C. under stirring. The protein solutions were prepared at concentrations ranging from 0.5 to 2 wt % (0.21 to 0.83 mM respectively), and were filtered through a porous membrane of 0.45 μm to avoid large protein aggregates. […] Stirring continued for 30 minutes in room temperature. […] The specimens remained stable i.e., no precipitation was observed, for at least 3 weeks at 4° C.

Data set [2] in a line: Water content by Karl Fischer Coulometer. The procedure: In this experiment the water content of celocoxib (CXB), beta-casein (β-CN) 1% nanocarriers, Sigma beta-casein (β-CN, Sigma material), and CXB-loaded β-CN 1% nanocarriers was measured by Metrohm 831 Karl Fischer Coulometer.
In an attempt to reduce the water content, an additional lypholization cycle was performed for the empty and CXB-loaded β-CN 1% nanocarriers. After this second lyophilization cycle water content was measured by Metrohm 831 Karl Fischer Coulometer.
Specifically, the first cycle lasted for 24 hours (data is presented in tables 5-7) then all samples were subjected to an additional cycle of lyophilization that lasted for 48 hours (total of 72 hours). Tables 8 and 9 present the results of samples that were subjected to 24, […], and 72 hours of lyophilization.

A short description of data set [3]: Small angle X-ray scattering (SAXS) of micelles. To be noted: 1 wt % β-casein, empty or loaded 1:8 protein:celecoxib, pH ~7. On the procedure: The small angle X-ray scattering equipment consisted of a SAXSess camera (Anton-Paar, Graz, Austria) connected to an X-ray generator (Philips, PW 1730/10) operating at 40 kV and 50 mA with a sealed-tube Cu anode. A Gael mirror was used to convert the divergent polychromatic X-ray beam into a focused line-shaped beam of Cu Kα radiation (λ=0.154 nm). The 2D scattering pattern was recorded by a PI-SCX fused fiber optic taper CCD camera from Princeton Instruments, which is a division of Roper Scientific, Inc. (Trenton, N.J., USA). The used CCD detector features a 2084×2084 array with 24×24 μm pixel size (chip size: 50×50 mm). The CCD was operated at −30° C. with 10° C. water-assisted cooling to reduce the thermally generated charge. Cosmic ray correction and background subtraction were performed on the 2D image before further data processing. The 2D image was integrated into the one-dimensional scattering function within a band of 10 mm. The measurement time was 30 min for each scattering curve (6 images of 5 minutes were taken to assist the cosmic ray correction).
The molecular weight of the scattering aggregates were calculated according to Eq. 1:
[formula] where M is the molecular weight, dΣ(0)/dΩ (cm^−1) the forward scattering intensity at q=0, c (g/cm^3) the β-casein concentration, NA the Avogadro number, and ΔρM (cm/g) the scattering length difference per mass, given by: ΔρM=Δρ ν (2)
The scattering length difference Δρ (cm^−2) was calculated using the known chemical composition of the protein and the solvent, and ν (cm^3/g), the specific volume of the protein in the solution that was calculated via density measurement of the solvent and the solution. The micelle aggregation number was then calculated by dividing the molecular weight of the micelles determined with Eq. 1, by the molecular weight of a single protein molecule.
For a particle of arbitrary shape with a scattering density difference of Δρ(r), the pair distance distribution function p(r) (PDDF) is given by: p(r)=r^2Δ ρ^2(r) (3) where Δ ρ^2(r) is the convolution square of Δρ(r) averaged for all directions in space. The PDDF is related to the scattered intensity l(q) by a Fourier transformation, and it enables the determination of the overall shape and size of the scattering objects.
[formula] λ is the wavelength of the incident radiation and θ is the angle between the scattered and incident beam. The function ƒ(r)=p(r)/r (6) is useful to identify flat plate-like particles, although it has no direct physical meaning. For lamellae, this function starts with a linearly increasing part and becomes almost flat when r is equal to the thickness of the lamella. For flat particles with a finite base area, the outer part decreases linearly because of boundary losses. The thickness of the lamella can then be read from the transition point.
The structural characteristics of the micelles in the two pH environments were studied by cryo-TEM and SAXS (Small Angle X-ray Scattering). Cryo-TEM was used to determine the shape of the micelles and to estimate their dimensions between 4 and 40° C. This information was further used to accurately calculate the micelles' dimensions from the SAXS data, and to study how the size and shape are affected by temperature. SAXS measurements also provided the critical micelle concentration (CMC) and the micelle aggregation numbers as a function of temperature. Experiments were performed in the concentration range of 0.1-40 mg/mL protein, at low pH (between 2.1 and 2.6) in dilute lactic acid solution (6 wt %) or HCl and in aqueous solutions at pH 6.7-7.3 in absence of salts or the presence of up to 0.1M NaCl.
SAXS measurements were used to determine the shape and dimensions of the micelles at low pH more precisely, and to evaluate the micelle molecular weight (i.e., the aggregation number). The scattering curves of 20 mg/mL β-casein in lactic acid solution (pH 2.6, IS 0.0022) at different temperatures are shown in FIG. 3a. […]

Data set [4] in a line: Small angle X-ray scattering (SAXS) of micelles. To be noted: 1 wt % β-casein, empty or loaded 1:8 protein:celecoxib, pH ~7. This is another data set of the same source.

For the molecule `Cc1ccc(-c2cc(C(F)(F)F)nn2-c2ccc(S(N)(=O)=O)cc2)cc1` [Celecoxib, celecoxib, reference compound], the “Solubility in aqueous buffer (observation)” value in data set [1] is “poor solubility”.
Turning to `CC(C)CCC[C@@H](C)[C@H]1CC[C@H]2[C@@H]3CC=C4C[C@@H](O)CC[C@]4(C)[C@H]3CC[C@]12C` [Cholesterol, cholesterol], the “Solubility in aqueous buffer (observation)” value in data set [1] is listed as “does not dissolve in buffer at all”.

B1: β-CN: Sigma beta-casein raw material powder (protein, UniProt P02666 16-224, looked up)
Beta-casein: RELEELNVPGEIVESLSSSEESITRINKKIEKFQSEEQQQTEDELQDKIHPFAQTQSLVYPFPGPIPNSLPQNIPPLTQTPVVVPPFLQPEVMGVSKVKEAMAPKHKEMPFPKYPVEPFTESQSLTLTDVENLHLPLPLLQSWMHQPHQPLPPTVMFPPQSVLSLSQSKVLPVPQKAVPYPQRDMPIQAFLLYQEPVLGPVRGPFPIIV
For B1, the “Average water content of lyophilized (dried) powders” value in data set [2] (data of Tables 5-7) is listed as “more than 10 % w/w”. In addition, the “% water, AVR” value in data set [2] (β-CN Sigma material, lyophilization time none, average) is 13.0%. Further, in data set [2] (β-CN Sigma material, single sample), the “% water” value was 15.0% and 9.4% and 14.7%.

B2: β-casein dried: empty β-casein micelles after lyophilization and re-suspension (protein, UniProt P02666 16-224, looked up)
Beta-casein: B1 Beta-casein
modifications: lyophilized micelles
notes: empty β-casein micelles after lyophilization and re-suspension
Consider B2, for which, in data set [3], the “Rg (from Guinier apr.)” value amounted to 8.1 nm and the “V, from a, b” value is 2841 nm^3. Further, the Density in data set [4] was determined as 1.23 g/mL.
